Reference: US10905653B2, “Sequentially decomposable polypeptide-based nanocarriers with protective shell and preparation thereof” (National Tsing Hua University, priority 2016, dated 2021)
Structures can show the parent of a compound that is named as a salt. No end group written: not given here.

Key:
[1] = TNBS assay, acidic hydrolysis of the cis-aconityl linkage; format: physicochemical
Method: TNBS (2,4,6-trinitrobenzene sulfonic acid) assay was performed in this example to analyze the acidic hydrolysis of the cis-aconityl linkage in the polypeptide-based long chain copolymer in conditions of different pH values. TNBS reacts with primary amines to yield a soluble orange colored product. Since PEG3400 released from hydrolyzed PEG3400-aconitic acid carries a free amine group at the end, the hydrolysis level of PEG3400-aconitic acid at different pH values is determined based on the amount of the colored product formed in TNBS assay. PEG3400-aconitic acid (2 mg/ml) was first dissolved in deionized water with a pH value of 5.0, 6.5, or 7.4 for hydrolysis. The hydrolysis reactions of 3 hours, 6 hours, 12 hours, and 24 fours were stopped by adjusting the pH value of the PEG3400-aconitic acid hydrolysate solutions to 8.2 and freezing. Sodium bicarbonate was added to the abovementioned hydrolysate solutions to a final concentration of 0.1 M (pH 8.2), and a 5% w/v TNBS solution was then added for reaction at 37° C. for 1 hour. The reaction was terminated using 1.0 N HCl, so that the volume ratio of the PEG3400-aconitic acid hydrolysate solution, the TNBS solution, and HCl was 4:2:1. Absorbance of the reaction-terminated solutions at 335 nm was measured with an enzyme-linked immunosorbent assay (ELISA) reader (Victor X3 2030 Multilabel Reader, PerkinElmer, Waltham, Mass., USA). According to the standard curve obtained from amine samples with known concentration, free amine group of PEG3400 in the reaction-terminated solutions was quantified and the hydrolysis level of PEG3400-aconitic acid at each pH was calculated.

[2] = tested on: human breast adenocarcinoma cells MDA-MB-231; assay: Cell viability assay (MTS assay), anti-tumor activity; format: cell-based; conditions: 10 μg/ml DOX equivalent, 24 hours treatment
Method: The anti-tumor activity of the drug-loaded polypeptide-based nanocarrier with protective shell of the present invention was evaluated in this example by cell viability assay (MTS assay) on human breast adenocarcinoma cells MDA-MB-231 cells. The cells were seeded in a 96-well plate (5×10^3 cells/well) and cultured in L-15 medium supplemented with 10% FBS and 1% penicillin and streptomycin at 37° C. for 1 day. Next, the medium was removed, and cells were treated with 100 μl L-15 medium containing DOX.HCl, the DOX-loaded polypeptide-based nanocarriers with protective shell of calcium phosphate and with LyP-1 peptide (M-DOX NP w/LyP-1), or the DOX-loaded polypeptide-based nanocarriers with protective shell of calcium phosphate and without LyP-1 peptide (M-DOX NP w/o LyP-1) at concentrations equivalent to 10 μg/ml DOX for 24 hours. The cells were rinsed with PBS 2 times and incubated with L-15 medium supplemented with 10% FBS and 1% penicillin and streptomycin at 37° C. for 24 hours, 48 hours, or 72 hours. To carry out the cell viability assay, the medium was first discarded from the 96-well plate, 10 μl MTS solution and 90 μl L-15 medium were added for incubation at 37° C. for 2.5 hours, and the solution was transferred to a new 96-well plate for measurement of light absorption at 490 nm. The assay was repeated 3 times.

| Compound | breakage of the cis-aconityl linkage ([1]; pH 5, within 12 hours) [%] | breakage of the cis-aconityl linkage ([1]; pH 6.5, within 12 hours) [%] | breakage of the cis-aconityl linkage ([1]; pH 6.5, within 24 hours) [%] | breakage of the cis-aconityl linkage ([1]; pH 7.4, within 12 hours) | viability of the breast adenocarcinoma cells ([2]; kept incubated for 72 hours) [%] | viability of the breast adenocarcinoma cells ([2]; first time point, post-incubation time not given) [%] |
| --- | --- | --- | --- | --- | --- | --- |
| PEG3400-aconityl linkage-polypeptide E15-H10-L10 (EEEEEEEEEEEEEEEHHHHHHHHHHLLLLLLLLLL; also: PEG3400 via aconityl linkage, site not given here) [polypeptide-based long chain copolymer] | 43.33 | 13.28 | 21 | about 1.97% |  |  |
| COc1cccc2c1C(=O)c1c(O)c3c(c(O)c1C2=O)C[C@@](O)(C(=O)CO)C[C@@H]3O[C@H]1C[C@H](N)[C@H](O)[C@H](C)O1 [DOX.HCl, doxorubicin hydrochloride] |  |  |  |  | 5.4 | 14.3 |
